Experimental findings from patent US11603409B2, “Humanized DR4 antibody gene having apoptosis-inducing activity and dual-acting chimeric antigen receptor T cell or natural killer cell therapeutic agent using same” (GENEUIN-TECH CO., LTD., priority 2017, dated 2023) are described below.

Experiment [1] relates to HEK293 cells which do not express DR4. Kind of experiment: Apoptosis induction by secretory DR4 scFv protein, MTT method, HEK293 control cells. It is filed as cell-based, human. Particulars: HEK293 cells not expressing DR4; protein added to culture medium at low and high concentrations; FIG. 4(A). As to the method:
(§1) To this end, apoptosis-inducing effects of secretory humanized DR4 scFv antibody recombinant protein were analyzed using HeLa cells, a cervical cancer cell line expressing DR4 on the cell surface, and HCT-116 cells, a colon cancer cell line. […] Each of these three cells was inoculated in a culture dish and cultured overnight, and then the secretory humanized DR4 scFv antibody recombinant protein was added to the culture medium, and the degree of death of the cells during culturing was determined by MTT method (Cyto X™ Cell viability assay kit, LPS solution, Korea).
(Tetrazolium dyes change colour on reduction, which living cells bring about.)

Experiment [2] relates to HeLa cells, a cervical cancer cell line expressing DR4. Put plainly: Apoptosis induction by secretory DR4 scFv protein, MTT method, HeLa cells. It is filed as cell-based. Particulars: low and high concentrations, FIG. 4(B). The procedure:
as §1

Experiment [3] has as its system HCT-116 cells, a colon cancer cell line. Put plainly: Apoptosis induction by secretory DR4 scFv protein, MTT method, HCT-116 cells. Particulars: HCT-116 cells expressing DR4; low and high concentrations; FIG. 4(C). Format: cell-based. As to the method:
as §1

B1: secretory humanized DR4 scFv antibody recombinant protein: Secreted humanized anti-DR4 scFv (SEQ ID NO: 1) with isoleucine zipper, Flag and His6 tags, expressed from pCMVFL-srkDR4 in HEK293 cells (protein)
scFv: EVQLVESGGGLVQPGGSLRLSCSASGFTFSSYSMQWVRQAPGKGLEYVAGIRSDGRYTNYGAAVKGRATISRDNSKNTVYLQMNSLRAEDTAVYYCAKGAYGYCGSTCAPYLGQIDAWGQGTLVTVSSGSTSGSGKPGSGEGSTKGSYELTQPPSVSVSPGQTVRITCSGGRYTYGWFQQKPGQAPVTVIYGNDKRPSNIPSRFSGSTSGSTVTLTISGVQAEDEADYYCGGADFSAGLFGGGTKLTVL
modifications: left off: small tags and cut ends; a dimerising Fc or GST
For B1, the “apoptosis effect (degree of death of the cells by MTT method)” value is reported as “not observed” in experiment [1], “apoptosis increased in proportion to the concentration” in experiment [2] and “apoptosis increased in proportion to the concentration” in experiment [3].
